Results: PMC8987015, “Studying Acetylation of Aconitase Isozymes by Genetic Code Expansion” (Frontiers in Chemistry, 2022)
One block for each molecule: values may come before it.

Key:
AcnB = AcnB (Escherichia coli, UniProt P36683); conditions: citrate 0.1 to 50 mM; enzyme reactivated with 1 mM (NH4)2Fe(SO4)2 and 5 mM DTT, 50 mM Tris pH 8
AcnA = AcnA (Escherichia coli, UniProt P25516); conditions: citrate 0.1 to 50 mM; enzyme reactivated with 1 mM (NH4)2Fe(SO4)2 and 5 mM DTT, 50 mM Tris pH 8
purified protein = substrate: O=C(O)CC(O)(CC(=O)O)C(=O)O; experiment: purified protein; conditions: citrate 0.1 to 50 mM, enzyme reactivated with 1 mM (NH4)2Fe(SO4)2 and 5 mM DTT, 50 mM Tris pH 8

Km (AcnB): 9.76 ± 0.67 mM | Km (AcnA): 3.45 ± 0.23 mM
Molecule: O=C(O)CC(O)(CC(=O)O)C(=O)O [citrate]

B1: AcnB (Escherichia coli K-12) (protein)
chain: MLEEYRKHVAERAAEGIAPKPLDANQMAALVELLKNPPAGEEEFLLDLLTNRVPPGVDEAAYVKAGFLAAIAKGEAKSPLLTPEKAIELLGTMQGGYNIHPLIDALDDAKLAPIAAKALSHTLLMFDNFYDVEEKAKAGNEYAKQVMQSWADAEWFLNRPALAEKLTVTVFKVTGETNTDDLSPAPDAWSRPDIPLHALAMLKNAREGIEPDQPGVVGPIKQIEALQQKGFPLAYVGDVVGTGSSRKSATNSVLWFMGDDIPHVPNKRGGGLCLGGKIAPIFFNTMEDAGALPIEVDVSNLNMGDVIDVYPYKGEVRNHETGELLATFELKTDVLIDEVRAGGRIPLIIGRGLTTKAREALGLPHSDVFRQAKDVAESDRGFSLAQKMVGRACGVKGIRPGAYCEPKMTSVGSQDTTGPMTRDELKDLACLGFSADLVMQSFCHTAAYPKPVDVNTHHTLPDFIMNRGGVSLRPGDGVIHSWLNRMLLPDTVGTGGDSHTRFPIGISFPAGSGLVAFAAATGVMPLDMPESVLVRFKGKMQPGITLRDLVHAIPLYAIKQGLLTVEKKGKKNIFSGRILEIEGLPDLKVEQAFELTDASAERSAAGCTIKLNKEPIIEYLNSNIVLLKWMIAEGYGDRRTLERRIQGMEKWLANPELLEADADAEYAAVIDIDLADIKEPILCAPNDPDDARPLSAVQGEKIDEVFIGSCMTNIGHFRAAGKLLDAHKGQLPTRLWVAPPTRMDAAQLTEEGYYSVFGKSGARIEIPGCSLCMGNQARVADGATVVSTSTRNFPNRLGTGANVFLASAELAAVAALIGKLPTPEEYQTYVAQVDKTAVDTYRYLNFNQLSQYTEKADGVIFQTAV
Km (purified protein): 9.34 ± 0.72 mM | kcat (purified protein): 63.5 ± 4.52 s⁻¹

B2: AcnA (Escherichia coli K-12) (protein)
chain: SSTLREASKDTLQAKDKTYHYYSLPLAAKSLGDITRLPKSLKVLLENLLRWQDGNSVTEEDIHALAGWLKNAHADREIAYRPARVLMQDFTGVPAVVDLAAMREAVKRLGGDTAKVNPLSPVDLVIDHSVTVDRFGDDEAFEENVRLEMERNHERYVFLKWGKQAFSRFSVVPPGTGICHQVNLEYLGKAVWSELQDGEWIAYPDTLVGTDSHTTMINGLGVLGWGVGGIEAEAAMLGQPVSMLIPDVVGFKLTGKLREGITATDLVLTVTQMLRKHGVVGKFVEFYGDGLDSLPLADRATIANMSPEYGATCGFFPIDAVTLDYMRLSGRSEDQVELVEKYAKAQGMWRNPGDEPIFTSTLELDMNDVEASLAGPKRPQDRVALPDVPKAFAASNELEVNATHKDRQPVDYVMNGHQYQLPDGAVVIAAITSCTNTSNPSVLMAAGLLAKKAVTLGLKRQPWVKASLAPGSKVVSDYLAKAKLTPYLDELGFNLVGYGCTTCIGNSGPLPDPIETAIKKSDLTVGAVLSGNRNFEGRIHPLVKTNWLASPPLVVAYALAGNMNINLASEPIGHDRKGDPVYLKDIWPSAQEIARAVEQVSTEMFRKEYAEVFEGTAEWKGINVTRSDTYGWQEDSTYIRLSPFFDEMQATPAPVEDIHGARILAMLGDSVTTDHISPAGSIKPDSPAGRYLQGRGVERKDFNSYGSRRGNHEVMMRGTFANIRIRNEMVPGVEGGMTRHLPDSDVVSIYDAAMRYKQEQTPLAVIAGKEYGSGSSRDWAAKGPRLLGIRVVIAESFERIHRSNLIGMGILPLEFPQGVTRKTLGLTGEEKIDIGDLQNLQPGATVPVTLTRADGSQEVVPCRCRIDTATELTYYQNDGILHYVIRNMLK
Km (purified protein): 1.64 ± 0.21 mM | kcat (purified protein): 20.6 ± 1.62 s⁻¹
